± gives the uncertainty stated by the source.
Assay: self-splicing fitness, log relative to wild type (ln ratio); higher = more splicing; Tetrahymena group I intron in knt gene, E. coli kanamycin selection, DiMSum; sequences stand for … in CUCUCU…GGAGGGAAAAGUUAUCAGGCAUGCACCUGGUAGCUAGUCUUUAAACCAAUAGAUUGCAUCGGUUUAAAAGGCAAGACCGUCAAAUUGCGGGAAAGGGGUCAACAGCCGUUCAGUACCAAGUCUCAGGGGAAACUUUGAGAUGGCCUUGCAAAGGGUAUGGUAAUAAGCUGACGGACAUGGUCCUAACCACGCAGCCAAGUCCUAAGUCAACAGAUCUUCUGUUGAUAUGGAUGCAGUUCACAGACUAAAUGUCGGUCGGGGAAGAUGUAUUCUUCUCAUAAGAUAUAGUCGGACCUCUCCUUAAUGGGAGCUAGCGGAUGAAGUGAUGCAACACUGGAGCCGCUGGGAACUAAUUUGUAUGCGAAAGUAUAUUGAUUAGUUUUGGAGUACUCGUGGUCG
Procedure, shortened: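 Library with all eight P1ex-region intron nucleotides randomised, intron inside the knt kanamycin-resistance gene on pET-22b(+), in E. coli BL21(DE3). Cells grew overnight at 37°C or 30°C on LB agar with or without 25 μg/mL kanamycin (plus 100 μg/mL carbenicillin, 50 μM IPTG, 0.2% rhamnose), in six replicate transformations. Pooled colonies were amplicon-sequenced on Illumina HiSeq 2500. DiMSum fitness is the error-weighted combination of wild-type-normalised replicate fold changes, kanamycin versus none.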

Sequence	self-splicing fitness (ln) (30 °C)	self-splicing fitness (ln) (37 °C)
AUACAGCAAUAUUACGCAGA	-1.49 ± 0.13	-1.51 ± 0.1
AUACAGCAAUAUUACGCCUG	-1.94 ± 0.12	0.29 ± 0.13
AUACAGCAAUAUUACGCGAU	-3.88 ± 0.33	-1.94 ± 0.21
AUACAGCAAUAUUACGCGCA	-0.623 ± 0.078	-0.0747 ± 0.11
AUACAGCAAUAUUACGCGCC	-1.06 ± 0.12	-0.66 ± 0.16
AUACAGCAAUAUUACGCGCU	-0.631 ± 0.094	0.0173 ± 0.12
AUACAGCAAUAUUACGCUCG	-0.288 ± 0.12	-0.205 ± 0.15
AUACAGCAAUAUUACGCUCU	0.359 ± 0.13	0.358 ± 0.16
AUACAGCAAUAUUACGCUGC	-2.38 ± 0.18	-3.02 ± 0.29
AUACAGCAAUAUUACGGACU	-0.732 ± 0.06	0.141 ± 0.09
AUACAGCAAUAUUACGGCAG	-2.21 ± 0.072	-0.564 ± 0.077
AUACAGCAAUAUUACGGGAG	-3.35 ± 0.15	-2.12 ± 0.13
AUACAGCAAUAUUACGGGCG	-1.25 ± 0.077	-1.18 ± 0.11
AUACAGCAAUAUUACGGUUC	-2.89 ± 0.12	-1.2 ± 0.12
AUACAGCAAUAUUACGUAGG	-2.13 ± 0.11	-0.536 ± 0.12
AUACAGCAAUAUUACGUCCA	-1.17 ± 0.08	-0.0617 ± 0.086
AUACAGCAAUAUUACGUGCC	-1.16 ± 0.078	-0.689 ± 0.11
AUACAGCAAUAUUACGUGUU	-3.98 ± 0.21	-2.64 ± 0.22
AUACAGCAAUAUUACGUUCA	-0.878 ± 0.07	-0.304 ± 0.071
AUACAGCAAUAUUACGUUCG	-1.69 ± 0.071	-1.15 ± 0.093
AUAGAGCAAUAUUACGAAGC	-2.7 ± 0.28	-0.819 ± 0.35

Sequence	self-splicing fitness (ln) (30 °C)	self-splicing fitness (ln) (37 °C)
AUAGAGCAAUAUUACGACGC	-0.187 ± 0.14	-0.765 ± 0.17
AUAGAGCAAUAUUACGACUU	-0.0326 ± 0.11	0.17 ± 0.11
AUAGAGCAAUAUUACGCCCA	-1.09 ± 0.29	-1.03 ± 0.48
AUAGAGCAAUAUUACGCCUG	-0.827 ± 0.092	0.302 ± 0.15
AUAGAGCAAUAUUACGCGCA	-0.749 ± 0.14	-0.253 ± 0.17
AUAGAGCAAUAUUACGGACG	-2.69 ± 0.22	-0.981 ± 0.19
AUAGAGCAAUAUUACGGAGC		-2.05 ± 0.38
AUAGAGCAAUAUUACGGCGC	-1.36 ± 0.096	-0.282 ± 0.14
AUAGAGCAAUAUUACGGCUG	-1.13 ± 0.13	0.795 ± 0.2
AUAGAGCAAUAUUACGGGUG	-3.22 ± 0.24	-2.58 ± 0.26
AUAGAGCAAUAUUACGGUCU	-1.2 ± 0.11	-0.695 ± 0.15
AUAGAGCAAUAUUACGUUGA	-1.89 ± 0.12	-1.4 ± 0.12
AUAUAGCAAUAUUACGAAAA	-2.4 ± 0.41	-1.72 ± 0.34
AUAUAGCAAUAUUACGAACU	-1.38 ± 0.22	0.111 ± 0.21
AUAUAGCAAUAUUACGAAUG	-1.77 ± 0.16	-1.54 ± 0.18
AUAUAGCAAUAUUACGACCA	-1.05 ± 0.32	0.391 ± 0.26
AUAUAGCAAUAUUACGACUC	-0.877 ± 0.15	-0.341 ± 0.2
AUAUAGCAAUAUUACGAUCA	-1.4 ± 0.16	-0.365 ± 0.22
AUAUAGCAAUAUUACGAUCU	0.333 ± 0.15	0.288 ± 0.13
AUAUAGCAAUAUUACGAUGC	-2.89 ± 0.27	-0.335 ± 0.22
AUAUAGCAAUAUUACGCAUC	-2.63 ± 0.22	-1.15 ± 0.26

Reference: the supplement of paper PMC7877785
